Paper PMC10097714, “ALS-linked TDP-43 mutations interfere with the recruitment of RNA recognition motifs to G-quadruplex RNA”

Assays:
[1] = molecular target: His-tagged RRM segment of TDP-43 (101-261aa) (UniProt Q13148); assay: GST pull-down (glutathione sepharose beads) with western blotting, band quantification; settings: three experiments, parent: est. 1.0, read off a plot
[2] = molecular target: T1, GST-RRM (human, UniProt Q13148 101-261); assay: EMSA (agarose); higher affinity than CaMKIIa G4; EMSA: 20 mM PIPES-NaOH pH 6.8, 150 mM NaCl, 0.8 mM MgCl2, 10% glycerol, 0.1 mg/ml BSA, 0.1 mg/ml poly-dI-dC, 25 C, gel 0.5x TBE pH 6.8; SPR: 20 mM PIPES pH 6.8, 12 mM KCl, 0.8 mM MgCl2, 150 mM NaCl, 0.05% Tween-20, 25 C; UV cross-linking: EMSA buffer without poly-dI-dC; pull-down: PIPES pH 6.8, 145 mM NaCl, 5.4 mM KCl, 0.8 mM MgCl2, 1.8 mM CaCl2, 0.05% Tween-20, 10% …; settings: protein: recombinant; tags: GST; label: 5' Cy3, 3' Alexa Fluor 647; parallel G4, A loop
[3] = molecular target: T2, TDP-43 WT full-length (human, UniProt Q13148 1-414); assay: EMSA (agarose); EMSA: 20 mM PIPES-NaOH pH 6.8, 150 mM NaCl, 0.8 mM MgCl2, 10% glycerol, 0.1 mg/ml BSA, 0.1 mg/ml poly-dI-dC, 25 C, gel 0.5x TBE pH 6.8; SPR: 20 mM PIPES pH 6.8, 12 mM KCl, 0.8 mM MgCl2, 150 mM NaCl, 0.05% Tween-20, 25 C; UV cross-linking: EMSA buffer without poly-dI-dC; pull-down: PIPES pH 6.8, 145 mM NaCl, 5.4 mM KCl, 0.8 mM MgCl2, 1.8 mM CaCl2, 0.05% Tween-20, 10% glycerol, 4 C; settings: protein: recombinant; tags: untagged; chain copies: 2; label: 5' Cy3, 3' Alexa Fluor 647; parallel G4, A loop
[4] = molecular target: T1, GST-RRM; assay: EMSA (agarose); lower affinity than PSD-95 G4; EMSA: 20 mM PIPES-NaOH pH 6.8, 150 mM NaCl, 0.8 mM MgCl2, 10% glycerol, 0.1 mg/ml BSA, 0.1 mg/ml poly-dI-dC, 25 C, gel 0.5x TBE pH 6.8; SPR: 20 mM PIPES pH 6.8, 12 mM KCl, 0.8 mM MgCl2, 150 mM NaCl, 0.05% Tween-20, 25 C; UV cross-linking: EMSA buffer without poly-dI-dC; pull-down: PIPES pH 6.8, 145 mM NaCl, 5.4 mM KCl, 0.8 mM MgCl2, 1.8 mM CaCl2, 0.05% Tween-20, 10% …; settings: protein: recombinant; tags: GST; label: 5' Cy3, 3' Alexa Fluor 647; parallel G4
[5] = molecular target: T2, TDP-43 WT full-length; assay: as above; settings: protein: recombinant; tags: untagged; chain copies: 2; label: 5' Cy3, 3' Alexa Fluor 647; parallel G4
[6] = molecular target: T2, TDP-43 WT full-length; assay: EMSA (agarose); up to 10x protein; EMSA: 20 mM PIPES-NaOH pH 6.8, 150 mM NaCl, 0.8 mM MgCl2, 10% glycerol, 0.1 mg/ml BSA, 0.1 mg/ml poly-dI-dC, 25 C, gel 0.5x TBE pH 6.8; SPR: 20 mM PIPES pH 6.8, 12 mM KCl, 0.8 mM MgCl2, 150 mM NaCl, 0.05% Tween-20, 25 C; UV cross-linking: EMSA buffer without poly-dI-dC; pull-down: PIPES pH 6.8, 145 mM NaCl, 5.4 mM KCl, 0.8 mM MgCl2, 1.8 mM CaCl2, 0.05% Tween-20, 10% glycerol, 4 C; settings: protein: recombinant; tags: untagged; chain copies: 2; label: 3' Alexa Fluor 647
[7] = molecular target: T1, GST-RRM; assay: EMSA (agarose); EMSA: 20 mM PIPES-NaOH pH 6.8, 150 mM NaCl, 0.8 mM MgCl2, 10% glycerol, 0.1 mg/ml BSA, 0.1 mg/ml poly-dI-dC, 25 C, gel 0.5x TBE pH 6.8; SPR: 20 mM PIPES pH 6.8, 12 mM KCl, 0.8 mM MgCl2, 150 mM NaCl, 0.05% Tween-20, 25 C; UV cross-linking: EMSA buffer without poly-dI-dC; pull-down: PIPES pH 6.8, 145 mM NaCl, 5.4 mM KCl, 0.8 mM MgCl2, 1.8 mM CaCl2, 0.05% Tween-20, 10% glycerol, 4 C; settings: protein: recombinant; tags: GST; label: 3' Alexa Fluor 647

“GST-fused wild-type glycine-rich (GR) segment of TDP-43 M337V” showed a ratio to parent ([1]; + CaMKIIα G4 RNA) of 0.26 and a ratio to parent ([1]; + PSD-95 G4 RNA) of 0.2.

“GST-fused wild-type glycine-rich (GR) segment of TDP-43 G287S” gave a ratio to parent ([1]; + CaMKIIα G4 RNA) of 0.52 and a ratio to parent ([1]; + PSD-95 G4 RNA) of 0.31.

GGGGAAAAGGGAGGGAUGGG (structured_RNA) [Cy3-PSD-Ax647]: binds [2]; binds [3].

UGGGGGGGGCGGGUGGGA (structured_RNA) [Cy3-CaMKII-Ax647]: binds [4]; binds [5].

UGUGUGUGUGUGUGUGUGUG (ssRNA) [UG10-Ax647]: no binding [6]; binds [7].
